Assay results from ChEMBL document CHEMBL2074303, “Transport of the glutathione conjugate of ethacrynic acid by the human multidrug resistance protein MRP” (FEBS Lett, 1996).

Substrate: CCC(CSC[C@@H](NC(=O)CC[C@H](N)C(=O)O)C(=O)NCC(=O)O)C(=O)c1ccc(OCC(=O)O)c(Cl)c1Cl
Assay: TP_TRANSPORTER: uptake in membrane vesicles from S1(MRP) cells
Type: functional, cell membranes, Membrane vesicle

B1: Multidrug resistance-associated protein 1 (Homo sapiens) (protein)
chain: MALRGFCSADGSDPLWDWNVTWNTSNPDFTKCFQNTVLVWVPCFYLWACFPFYFLYLSRHDRGYIQMTPLNKTKTALGFLLWIVCWADLFYSFWERSRGIFLAPVFLVSPTLLGITMLLATFLIQLERRKGVQSSGIMLTFWLVALVCALAILRSKIMTALKEDAQVDLFRDITFYVYFSLLLIQLVLSCFSDRSPLFSETIHDPNPCPESSASFLSRITFWWITGLIVRGYRQPLEGSDLWSLNKEDTSEQVVPVLVKNWKKECAKTRKQPVKVVYSSKDPAQPKESSKVDANEEVEALIVKSPQKEWNPSLFKVLYKTFGPYFLMSFFFKAIHDLMMFSGPQILKLLIKFVNDTKAPDWQGYFYTVLLFVTACLQTLVLHQYFHICFVSGMRIKTAVIGAVYRKALVITNSARKSSTVGEIVNLMSVDAQRFMDLATYINMIWSAPLQVILALYLLWLNLGPSVLAGVAVMVLMVPVNAVMAMKTKTYQVAHMKSKDNRIKLMNEILNGIKVLKLYAWELAFKDKVLAIRQEELKVLKKSAYLSAVGTFTWVCTPFLVALCTFAVYVTIDENNILDAQTAFVSLALFNILRFPLNILPMVISSIVQASVSLKRLRIFLSHEELEPDSIERRPVKDGGGTNSITVRNATFTWARSDPPTLNGITFSIPEGALVAVVGQVGCGKSSLLSALLAEMDKVEGHVAIKGSVAYVPQQAWIQNDSLRENILFGCQLEEPYYRSVIQACALLPDLEILPSGDRTEIGEKGVNLSGGQKQRVSLARAVYSNADIYLFDDPLSAVDAHVGKHIFENVIGPKGMLKNKTRILVTHSMSYLPQVDVIIVMSGGKISEMGSYQELLARDGAFAEFLRTYASTEQEQDAEENGVTGVSGPGKEAKQMENGMLVTDSAGKQLQRQLSSSSSYSGDISRHHNSTAELQKAEAKKEETWKLMEADKAQTGQVKLSVYWDYMKAIGLFISFLSIFLFMCNHVSALASNYWLSLWTDDPIVNGTQEHTKVRLSVYGALGISQGIAVFGYSMAVSIGGILASRCLHVDLLHSILRSPMSFFERTPSGNLVNRFSKELDTVDSMIPEVIKMFMGSLFNVIGACIVILLATPIAAIIIPPLGLIYFFVQRFYVASSRQLKRLESVSRSPVYSHFNETLLGVSVIRAFEEQERFIHQSDLKVDENQKAYYPSIVANRWLAVRLECVGNCIVLFAALFAVISRHSLSAGLVGLSVSYSLQVTTYLNWLVRMSSEMETNIVAVERLKEYSETEKEAPWQIQETAPPSSWPQVGRVEFRNYCLRYREDLDFVLRHINVTINGGEKVGIVGRTGAGKSSLTLGLFRINESAEGEIIIDGINIAKIGLHDLRFKITIIPQDPVLFSGSLRMNLDPFSQYSDEEVWTSLELAHLKDFVSALPDKLDHECAEGGENLSVGQRQLVCLARALLRKTKILVLDEATAAVDLETDDLIQSTIRTQFEDCTVLTIAHRLNTIMDYTRVIVLDKGEIQEYGAPSDLLQQRGLFYSMAKDAGLV
Km: 5 µM
